B1: Trimeric TSP1 fragment, oligomerization domain + procollagen (aa 261–373) (domain or fragment, human, UniProt P07996 261-373, looked up)
chain: HKTKDLQAICGISCDELSSMVLELRGLRTIVTTLQDSIRKVTEENKELANELRRPPLCYHNGVQYRNNEEWTVDSCTECHCQNSVTICKKVSCPIMPCSNATVPDGECCPRCW
notes: thrombospondin-1 (TSP1), human, oligomerization domain + procollagen, aa 261-373; Subcloned into HindIII and XbaI sites of the APtag-5 vector; also called trimeric TSP1 fragment containing the procollagen domain alone; source: HEK293E suspension culture, transient transfection, purified from culture supernatant (HisTrap Excel); not shown: Myc, C-terminal, kept
B2: Trimeric TSP1 fragment, oligomerization domain + procollagen + 1^st & 2^nd type 1 repeats (aa 261–490) (domain or fragment, human, UniProt P07996 261-490, looked up)
chain: HKTKDLQAICGISCDELSSMVLELRGLRTIVTTLQDSIRKVTEENKELANELRRPPLCYHNGVQYRNNEEWTVDSCTECHCQNSVTICKKVSCPIMPCSNATVPDGECCPRCWPSDSADDGWSPWSEWTSCSTSCGNGIQQRGRSCDSLNNRCEGSSVQTRTCHIQECDKRFKQDGGWSHWSPWSSCSVTCGDGVITRIRLCNSPSPQMNGKPCEGEARETKACKKDACP
notes: thrombospondin-1 (TSP1), human, oligomerization domain + procollagen + 1st and 2nd type 1 repeats, aa 261-490; Subcloned into HindIII and XbaI sites of the APtag-5 vector; source: HEK293E suspension culture, transient transfection, purified from culture supernatant (HisTrap Excel); not shown: Myc, C-terminal, kept
B3: Trimeric TSP1 fragment, oligomerization domain + procollagen + type 1 repeats (aa 261–547) (domain or fragment, human, UniProt P07996 261-547, looked up)
chain: HKTKDLQAICGISCDELSSMVLELRGLRTIVTTLQDSIRKVTEENKELANELRRPPLCYHNGVQYRNNEEWTVDSCTECHCQNSVTICKKVSCPIMPCSNATVPDGECCPRCWPSDSADDGWSPWSEWTSCSTSCGNGIQQRGRSCDSLNNRCEGSSVQTRTCHIQECDKRFKQDGGWSHWSPWSSCSVTCGDGVITRIRLCNSPSPQMNGKPCEGEARETKACKKDACPINGGWGPWSPWDICSVTCGGGVQKRSRLCNNPTPQFGGKDCVGDVTENQICNKQDCP
notes: Subcloned into HindIII and XbaI sites of the APtag-5 vector; also called trimeric TSP1 fragment containing the procollagen domain and type 1 repeats; trimeric TSP1 fragment that contains all three type 1 repeats; source: HEK293E suspension culture, transient transfection, purified from culture supernatant (HisTrap Excel); not shown: Myc, C-terminal, kept
B4: Trimeric TSP1 fragment, oligomerization domain + procollagen and 1^st type 1 repeat (aa 261–429) (domain or fragment, human, UniProt P07996 261-429, looked up)
chain: HKTKDLQAICGISCDELSSMVLELRGLRTIVTTLQDSIRKVTEENKELANELRRPPLCYHNGVQYRNNEEWTVDSCTECHCQNSVTICKKVSCPIMPCSNATVPDGECCPRCWPSDSADDGWSPWSEWTSCSTSCGNGIQQRGRSCDSLNNRCEGSSVQTRTCHIQECD
notes: thrombospondin-1 (TSP1), human, oligomerization domain + procollagen + 1st type 1 repeat, aa 261-429; Subcloned into HindIII and XbaI sites of the APtag-5 vector; also called trimeric TSP1 fragment containing the procollagen domain and the 1st type 1 repeat; source: HEK293E suspension culture, transient transfection, purified from culture supernatant (HisTrap Excel); not shown: Myc, C-terminal, …

Target: the molecule itself
Experiment: SDS-PAGE in non-reducing and reducing conditions; purified fragments separated in non-reducing and reducing (50 mM DTT) conditions; colloidal blue stain and anti-Myc immunoblot

Row | Protein | stoichiometry N
1 | B1 | 3
2 | B2 | 3
3 | B3 | 3
4 | B4 | 3
